From US9150630B2, “Use of Idbf” (Industry-Academic Cooperation Foundation, Yonsei University, priority 2008, dated 2015)
Primed or numbered codes have the meaning given here. Ends that are not written are not given here. FITC′ = not defined here

T1: Dvl-1 (Mus musculus, UniProt P51141)
T1 construct: endogenous in cells; host or cells: MC3T3E1 osteoblasts
T1 sequence (P51141 1-695): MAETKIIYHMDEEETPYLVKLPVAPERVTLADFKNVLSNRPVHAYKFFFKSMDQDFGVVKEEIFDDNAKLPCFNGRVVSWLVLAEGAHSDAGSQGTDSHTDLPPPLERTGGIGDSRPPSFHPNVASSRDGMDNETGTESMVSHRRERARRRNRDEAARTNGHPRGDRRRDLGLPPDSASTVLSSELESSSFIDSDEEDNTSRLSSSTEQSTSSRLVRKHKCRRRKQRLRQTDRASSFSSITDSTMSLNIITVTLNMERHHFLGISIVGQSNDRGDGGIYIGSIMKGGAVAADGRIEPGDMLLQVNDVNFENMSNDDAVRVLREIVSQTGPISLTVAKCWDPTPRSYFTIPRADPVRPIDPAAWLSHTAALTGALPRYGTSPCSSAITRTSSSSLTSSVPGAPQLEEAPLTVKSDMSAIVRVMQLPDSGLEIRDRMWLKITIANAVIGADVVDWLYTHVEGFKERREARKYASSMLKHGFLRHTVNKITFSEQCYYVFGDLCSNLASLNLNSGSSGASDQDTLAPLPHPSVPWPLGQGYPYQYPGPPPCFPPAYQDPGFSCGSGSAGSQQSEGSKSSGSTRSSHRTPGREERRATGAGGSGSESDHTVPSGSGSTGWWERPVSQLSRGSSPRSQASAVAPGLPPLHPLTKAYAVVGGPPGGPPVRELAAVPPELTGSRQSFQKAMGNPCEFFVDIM

B1: Idbf siRNA: mixture of two siRNAs targeting different sites of Idbf mRNA (SEQ ID NO: 12-15) (nucleic acid)
chain 1: UUGUAGGAAUCGAAAGACUUU
chain 2: AGUCUUUCGAUUCCUACAAUU
chain 3: GCAGUUUGCGCAGUCCACAUU
chain 4: UGUGGACUGCGCAAACUGCUU
modifications: listed as RNA, chemistry not given here
B2: Wnt3a: Wnt ligand used at 100 ng/ml to activate the Wnt/β-catenin signaling pathway (protein, UniProt P56704 19-352, looked up)
Protein Wnt-3a: SYPIWWSLAVGPQYSSLGSQPILCASIPGLVPKQLRFCRNYVEIMPSVAEGIKIGIQECQHQFRGRRWNCTTVHDSLAIFGPVLDKATRESAFVHAIASAGVAFAVTRSCAEGTAAICGCSSRHQGSPGKGWKWGGCSEDIEFGGMVSREFADARENRPDARSAMNRHNNEAGRQAIASHMHLKCKCHGLSGSCEVKTCWWSQPDFRAIGDFLKDKYDSASEMVVEKHRESRGWVETLRPRYTYFKVPTERDLVYYEASPNFCEPNPETGSFGTRDRTCNVSSHGIDGCDLLCCGRGHNARAERRREKCRCVFHWCCYVSCQECTRVYDVHTCK
B3: Idbf: novel Dvl-binding protein (SEQ ID NO: 1), overexpressed by transfection of pcDNA3.1-Idbf-Myc (protein, listed as Homo sapiens)
chain: MSSLGGGSQDAGGSSSSSTNGSGGSGSSGPKAGAADKSAVVAAAAPASVADDTPPPERRNKSGIISEPLNKSLRRSRPLSHYSSFGSSGGSGGGSMMGGESADKATAAAAAASLLANGHDLAAAMAVDKSNPTSKHKSGAVASLLSKAERATELAAEGQLTLQQFAQSTEMLKRVVQEHLPLMSEAGAGLPDMEAVAGAEALNGQSDFPYLGAFPINPGLFIMTPAGVFLAESALHMAGLAEYPMQGELASAISSGKKKRKRCGMCAPCRRRINCEQCSSCRNRKTGHQICKFRKCEELKKKPSAALEKVMLPTGAAFRWFQ
modifications: Myc tag

Legend:
HEK293 cells = experiment: Introduction of FITC-labelled PTD-DBMP into HEK293 cells (fluorescence microscopy); type: cell-based, human; conditions: 1 μM or 4 μM peptide, 3 hours, FIG. 21
Method: To confirm the introduction of two PTD-DBMP into cells, HEK293 cells were seeded and incubated on gelatin-coated glasses for one day, and then 1 μM or 4 μM peptide were treated on the cells. After 3 hours, the cells were washed with PBS, and then fixed using fixative solution (99% methanol and 1% formaldehyde). Nucleus of cells were counterstained using DAPI, and the cells were observed using ECLIPSE TE2000-U microscope.

Wnt/β-catenin signaling = experiment: β-catenin immunoblotting of PTD-DBMP treated HEK293 cells; type: cell-based, human; conditions: 1 μM or 4 μM PTD-DBMP, 12 hours, FIG. 22
Method: To investigate the effect of PTD-DBMP in the cells, HEK293 cells were incubated with 1 μM or 4 μM PTD-DBMP for 12 hours, and then the cell lysates were subjected into immunoblotting using anti-β-catenin, and anti-α-tubulin antibodies.

[1] = test system: Wnt/β-catenin pathway in MC3T3E1 cells; experiment: Immunocytochemistry of PTD-DBMP treated MC3T3E1 cells; type: cell-based; conditions: 5 μM or 10 μM, 12 hours, FIG. 23
Method: PTD-DBMP (SEQ ID NO: 26) was treated into MC3T3E1 cells, and then the introduction and effect of PTD-DBMP were monitored by immunocytochemistry analyses. MC3T3E1 cells were incubated on gelatin-coated glasses for 1 day, and then 5 μM or 10 μM PTD-DBMP were treated on the incubated cells for 12 hours. The PTD-DBMP-treated cells were washed with PBS, and then fixed using a fixative solution (99% methanol and 1% formaldehyde). The fixed cells were permeabilized with 0.2% saponin solution, and then incubated with anti-β-catenin antibody (home-made; 1:100). The cells were incubated with Alexafluor 488 conjugated secondary antibody, and then the nucleus of cells were counterstained with DAPI.

Wnt/β-catenin pathway [2] = experiment: pTOPFLASH/pFOPFLASH luciferase reporter assay in MC3T3E1 cells; type: cell-based; conditions: 5 μM PTD-DBMP or 100 ng/ml Wnt3a, 12 hours, FIG. 24
Method: To investigate the effect of PTD-DBMP treatment on Wnt/β-catenin pathway of MC3T3E1 cells, 0.5 μg of pTOPFLASH or pFOPFLASH with 50 ng of pCMV-β-Gal was transfected into the cells. After 12 hours, the transfected cells were treated with 100 ng/ml Wnt3a, or 5 μM PTD-DBMP, and then incubated for 12 hours. Then the cells were washed with PBS, and then lysed in Lysis Buffer (Promega). The cell lysates were mixed with Luciferase Substrate (Promega) to monitor the luciferase activities.

[3] = test system: MC3T3E1 cells (osteoblast differentiation); experiment: RT-PCR of osteoblast differentiation markers in MC3T3E1 cells; type: cell-based; conditions: 10 μM PTD-DBMP or 100 ng/ml Wnt3a, 2 and 4 days, FIG. 25
Method: To study the effect of PTD-DBMP on osteoblast differentiation, 100 ng/ml Wnt3a, or 10 μM PTD-DBMP was treated on MC3T3E1 cells. The cells were harvested after 2, and 4 days later, and then subjected into RT-PCR to monitor the amounts of ALP, Fgf18, RANKL, and HPRT mRNAs. The mRNA amounts of osteoblast differentiation markers (ALP, Fgf18, RANKL) were increased by PTD-DBMP treatment, as well as by Wnt3a treatment (FIG. 25).

β-catenin = experiment: Idbf overexpression or knock-down in HEK293 cells: β-catenin immunoblot and TOPFLASH reporter; type: cell-based, human; conditions: FIG. 5; for transcriptional activity of β-catenin: pTOPFLASH/pFOPFLASH luciferase; for protein level of β-catenin: transfection, immunoblotting
Method: 0.9 kb PCR product was restricted with XbaI and BamHI, and subcloned into a pcDNA3.1/myc His(−) vector (Invitrogen) (pcDNA3.1-Idbf-Myc). Idbf overexpression was performed by transfection of pcDNA3.1-Idbf-Myc into HEK293 cells using Lipofectamine plus reagent (Invitrogen) as the manufacturers' instruments.
Idbf knock-down was performed by transfection of Idbf siRNA into HEK293 cells using Lipofectamine plus reagent (Invitrogen) as the manufacturers' instruments. Idbf siRNA was synthesized using Silence™ siRNA Construction Kit (Ambion). To elevate the efficiency of knock-down, the mixture of two kinds of siRNAs, which are targeting different site of Idbf mRNA, were used.
For immunoblotting, cells were harvested, and lysed in RIPA buffer (50 mM Tris pH 7.5, 150 mM NaCl, 1 mM EDTA, and 1% Triton X-100). All chemicals were purchased from Sigma-Aldrich.
To detect proteins, whole cell lysates or immunoprecipitants were subjected into immunoblotting using anti-β-catenin, anti-Myc, or anti-α-tubulin antibodies. To monitor the transcriptional activity of β-catenin, 0.5 μg of pTOPFLASH or pFOPFLASH (kind gill from Dr. B. Vogelstein and Dr. K. Kinzler in Johns Hopkins Oncology Center, Baltimore, Md.) with 50 ng of pCMV-β-Gal was transfected into HEK293 cells. The luciferease activities, which indicate the transcriptional activity of β-catenin, were normalized by β-galactosidase activities, which show the efficiency of transfection. […] Oppositely, the protein level of β-catenin and its transcriptional activity were increased by Idbf knock-down (FIG. 5B). Error bars in FIG. 5 indicates standard deviation. WCL and IP are abbreviations of whole cell lysate and immunoprecipitation, respectively.

[4] = test system: Wnt/β-catenin pathway and osteoblast differentiation in MC3T3E1 cells; experiment: Idbf overexpression and Wnt3a treatment in MC3T3E1 cells, RT-PCR; type: cell-based; conditions: FIG. 17C; for ALP and Fgf18 mRNA: 100 ng/ml Wnt3a 12 hours, or ascorbic acid and β-glycerol-phosphate 2 days
Method: Idbf was overexpressed in MC3T3E1 cells to investigate the function of Idbf in Wnt/β-catenin pathway and osteoblast differentiation. MC3T3E1 cells were transfected with pcDNA3.1 or pcDNA3.1-Idbf-Myc, and then transfected cells were incubated in α-MEM media containing 100 ng/ml Wnt3a for 12 hours or in α-MEM containing 50 mg/l ascorbic acid and 10 mM […] for 2 days. Wnt3a treatment results in mRNA increments of ALP and Fgf18, which were more significant than ascorbic acid and β-glycerol-phosphate treatment (FIG. 17C). […] However, the common target genes of Wnt/β-catenin pathway, cyclin D and c-myc were not regulated by Wnt3a or ascorbic acid and β-glycerol-phosphate treatment (FIG. 17C).

Wnt/β-catenin pathway [5] = experiment: Wnt3a treatment and Idbf overexpression in HEK293 cells (reporter assay, Idbf-Dvl-1 binding); type: cell-based, human; conditions: for effect on Wnt/β-catenin pathway in HEK293 cells: 100 ng/ml Wnt3a 12 hours or 0.5 μg plasmid, FIG. 19
Method: Function of Idbf in Wnt/β-catenin pathway was also studied in HEK293 cells, which is a established human embryonic kidney cell-line. HEK293 cells were transfected with 0.5 μg pcDNA3.1 or pcDNA3.1-Idbf-Myc. For reporter assay, 0.5 μg pTOPFLASH or pFOPFLASH with 50 ng pCMV-β-Gal was co-transfected. The transfeced cells were incubated in α-MEM with or without 100 ng/ml Wnt3a for 12 hours. […] The enhancement of Idbf-Dvl-1 binding by Wnt3a treatment was also not observed (FIG. 20).

Dvl-1 = target: T1, Dvl-1; experiment: Idbf-Dvl-1 binding by immunoprecipitation with anti-Idbf antibody; conditions: with or without Wnt3a, FIG. 18B (MC3T3E1 osteoblast)
Excerpt: To investigate the importance of Idbf-Dvl-1 binding in Idbf function, a mutant of Idbf, in which Dvl binding minimal peptide (DBMP; RKTGHQICKFRKC, SEQ ID NO: 4) was removed, was produced (pcDNA3.1-Idbf-ΔDBMP-Myc).
To monitor Idbf-Dvl-1 binding, cell lysates were subjected into immunoprecipitation using anti-Idbf antibody. Whole cell lysates were subjected into immunoblotting to detect the amounts of proteins, including β-catenin, α-tubulin, and Dvl-1.

binding to Dvl-1 (Dvl-1) | Molecule | introduction of peptide into cells (green fluorescence in nucleus and cytosol) (HEK293 cells) | amount of β-catenin (Wnt/β-catenin signaling) | activation of Wnt/β-catenin pathway (β-catenin in nucleus) [1] | introduction of peptide into cells (green fluorescence by FITC on nucleus and cytosol) [1] | activation of Wnt/β-catenin pathway (luciferase activity normalized by β-galactosidase) (Wnt/β-catenin pathway [2]) | mRNA amounts of osteoblast differentiation markers (ALP, Fgf18, RANKL) [3] | transcriptional activity of β-catenin (β-catenin) | protein level of β-catenin (β-catenin) | cyclin D and c-myc (common target genes of Wnt/β-catenin pathway) ([4]; 100 ng/ml Wnt3a 12 hours) | ALP and Fgf18 mRNA [4] | effect on Wnt/β-catenin pathway in HEK293 cells (Wnt/β-catenin pathway [5]) | enhancement of Idbf-Dvl-1 binding (Wnt/β-catenin pathway [5]; Wnt3a treatment, FIG. 20)
 | PTD-DBMP: PTD and glycine linker on the amino terminus of DBMP, FITC on the carboxyl terminus; two peptides in section 7, SEQ ID NO: 26 in section 8 (RRRRRRRRGGGGRKTGHQICKFRKCK-{FITC′}; cysteine pairing not given here) | successfully introduced into the cells | increased | accumulation of β-catenin (red) in nucleus of the cells | successfully introduced into the cells | as significant as the activation by Wnt3a treatment | increased |  |  |  |  |  | 
 | B1 |  |  |  |  |  |  | increased | increased |  |  |  | 
 | B2 |  |  |  |  | activation | increased |  |  | not regulated | increments | very marginal | not observed
binds to Dvl-1 in Wnt3a-dependent manner | B3 |  |  |  |  |  |  | reduced | reduced |  | suppressed increment | very marginal | 
